Measurements reported in US20250277029A1 (Amgen, published 2025).

Assays:
[1] = molecular target: T1, His-tagged huCB1-ND (human CB1 in nanodisc) (human); assay: flow cytometry, yeast-displayed IgG, binding/display ratio
T1 construct: CB1 construct of Cell 167(3) (2016) 750-762 expressed in Sf9 cells; POPC:MSP1D1:CB1 480:8:1; also called CB1-nanodisc; huCB1-Nanodisc; not shown: histidine purification tag

[2] = molecular target: T2, empty-ND (nanodisc without CB1); assay: as above
T2 construct: its only protein is the nanodisc scaffold; also called Empty Nanodisc

[3] = molecular target: T3, GFP-fused huCB1-SMALP (human CB1 in styrene maleic acid lipoparticles) (human, UniProt P21554 1-472); assay: flow cytometry, yeast-displayed IgG, GFP MFI
T3 construct: Prepared as in Luna V. et al. 2018; also called huCB1-GFP-SMALP; wtCB1-SMALP; not shown: GFP fusion

[4] = molecular target: T4, mouse CB1 (mouse, UniProt P47746 1-473); assay: fold over mock (Table 14)
T4 construct: also called muCB1; murine CB1

[5] = molecular target: T5, human cannabinoid receptor type 2 (CB2) (human, UniProt P34972 1-360); assay: fold over mock (Table 14)
T5 construct: also called huCB2; full length hu CB2

[6] = molecular target: T6, GFP-fused huCB1 in styrene maleic acid lipoparticles (CB1-SMALP-GFP) (human, UniProt P21554 1-472); assay: flow cytometry, yeast-displayed Fab, 2.5 nM CB1-SMALP-GFP, after background subtraction
T6 construct: Prepared as described in Luna V. et al. 2018; also called huCB1-GFP-SMALP; GFP-tagged huCB1-SMALP; not shown: GFP fused to huCB1

[7] = molecular target: empty nanodisc (Empty ND); assay: flow cytometry, yeast-displayed Fab, 50 nM Empty ND, after background subtraction
Sequence of empty nanodisc (Empty ND) (P02647 79-267): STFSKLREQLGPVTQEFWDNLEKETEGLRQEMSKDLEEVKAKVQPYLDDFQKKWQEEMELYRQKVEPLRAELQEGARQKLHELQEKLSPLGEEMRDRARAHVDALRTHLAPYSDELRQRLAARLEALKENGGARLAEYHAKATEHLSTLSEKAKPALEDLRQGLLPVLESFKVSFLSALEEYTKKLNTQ

T3 sequence (P21554 whole entry, the tested form may be a part): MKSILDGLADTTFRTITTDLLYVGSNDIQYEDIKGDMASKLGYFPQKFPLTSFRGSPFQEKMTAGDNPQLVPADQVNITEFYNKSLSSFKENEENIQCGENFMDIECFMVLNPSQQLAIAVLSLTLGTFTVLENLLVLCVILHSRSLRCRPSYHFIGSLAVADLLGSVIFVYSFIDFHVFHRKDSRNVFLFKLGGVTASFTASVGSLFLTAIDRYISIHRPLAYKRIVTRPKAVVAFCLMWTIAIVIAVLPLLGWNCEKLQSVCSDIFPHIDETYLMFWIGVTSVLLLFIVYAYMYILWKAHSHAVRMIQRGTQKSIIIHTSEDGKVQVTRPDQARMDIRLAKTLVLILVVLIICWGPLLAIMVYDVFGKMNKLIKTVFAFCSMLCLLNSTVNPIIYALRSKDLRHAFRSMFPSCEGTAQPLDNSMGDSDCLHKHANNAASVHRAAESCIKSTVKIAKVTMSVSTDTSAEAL
T1 sequence (P21554 99-414): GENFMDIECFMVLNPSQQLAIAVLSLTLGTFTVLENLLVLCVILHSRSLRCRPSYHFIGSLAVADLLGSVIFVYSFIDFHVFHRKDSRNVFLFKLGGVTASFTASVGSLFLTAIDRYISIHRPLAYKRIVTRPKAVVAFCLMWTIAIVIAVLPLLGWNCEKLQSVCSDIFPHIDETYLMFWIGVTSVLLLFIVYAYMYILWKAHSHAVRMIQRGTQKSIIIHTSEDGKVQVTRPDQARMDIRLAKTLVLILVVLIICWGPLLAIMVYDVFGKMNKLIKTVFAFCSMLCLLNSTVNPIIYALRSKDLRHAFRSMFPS
T4 sequence (P47746 whole entry): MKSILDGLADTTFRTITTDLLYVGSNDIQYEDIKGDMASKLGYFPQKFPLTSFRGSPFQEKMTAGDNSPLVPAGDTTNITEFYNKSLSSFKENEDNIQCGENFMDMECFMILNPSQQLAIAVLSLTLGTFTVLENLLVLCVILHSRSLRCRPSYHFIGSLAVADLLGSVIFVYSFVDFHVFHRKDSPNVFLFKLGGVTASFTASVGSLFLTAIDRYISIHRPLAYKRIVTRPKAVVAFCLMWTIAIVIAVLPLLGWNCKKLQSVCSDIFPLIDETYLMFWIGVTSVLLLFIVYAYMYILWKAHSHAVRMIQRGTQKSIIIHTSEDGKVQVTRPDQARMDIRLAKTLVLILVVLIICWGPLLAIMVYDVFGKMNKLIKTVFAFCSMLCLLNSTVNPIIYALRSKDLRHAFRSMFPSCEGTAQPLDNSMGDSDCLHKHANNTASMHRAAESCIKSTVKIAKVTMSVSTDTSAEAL
T6 sequence (P21554 whole entry, the tested form may be a part): as the sequence (P21554 whole entry, the tested form may be a part) above
T5 sequence (P34972 whole entry): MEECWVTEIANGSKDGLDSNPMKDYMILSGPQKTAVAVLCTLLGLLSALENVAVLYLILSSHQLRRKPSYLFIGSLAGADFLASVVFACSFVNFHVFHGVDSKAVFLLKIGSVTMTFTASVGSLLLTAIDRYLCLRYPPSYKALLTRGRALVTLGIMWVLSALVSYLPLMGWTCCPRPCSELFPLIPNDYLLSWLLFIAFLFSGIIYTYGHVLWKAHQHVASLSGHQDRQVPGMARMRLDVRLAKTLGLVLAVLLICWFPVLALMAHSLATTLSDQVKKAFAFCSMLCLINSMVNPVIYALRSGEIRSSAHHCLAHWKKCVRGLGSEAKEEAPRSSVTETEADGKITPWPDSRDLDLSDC

Binder	0.200 nM huCB1-Nanodisc binding (relative to 10D10N35Y) [1] [fold]	50.0 nM Empty Nanodisc binding (relative to 10D10N35Y) [2] [fold]	100 nM huCB1-GFP-SMALP binding (normalized to 10D10N35Y) [3] [fold]	binding result [4]	binding result [5]	Relative binding fold change compared to LIBC528116 (Fab) [6] [fold]	Relative binding fold change compared to LIBC528116 (Fab) [7] [fold]
LIBC528169-1 (antibody, V domains shown, also called LIBC528169-1 + VK1 germline fix(es)) VH: QVQLQESGPGLVKPSQTLSLTCTVSGGSIRRGGDYWSWIRQHPGKGLEWIGHIYQSGSTKYNPSFEDRATISVNTYKNQFSLKLSSVTAADTAVYYCARDYDILTGYSYYYYGMDVWGQGTTVTVSS VL: DIQLTQSPSTLSASVGDRVTITCRASQSISNYLNWYQQKPGKAPKLLIYAASSLHSGVPSRFSGSGSGTDFTLTISSLQPEDFASYYCQQYQSYPLTFGQGTKVEIKR	4.82	0.68	4.58	–	–	–	–
LIBC528116-1 (antibody, IgG1, V domains shown, also called 37940-4) VH: QVQLQESGPGLVKPSQTLSLTCTVSGGSIRRGGDYWAWIRQHPGKGLEWIGHVYYTGSTNYNPRFKDRATISVNTYKNQFSLKLSSVTAADTAVYYCARNYDTVTGYSYYYYGMDVWGQGTTVTVSS VL: DIQLTQSPSTLSASVGDRVTITCRASQSISNYLNWYQQKPGKAPKLLIYAASSLHSGVPSRFSGSGSGTDFTLTISSLQPEDFASYYCQQYQSYPLTFGQGTKVEIKR	–	–	5.8	no binding	no binding	–	–
LIBC527912-1 (antibody, V domains shown) VH: QVQLQESGPGLVKPSQTLSLTCTVSGGSIRRGGDYWSWIRQHPGKGLEWIGYIYQTGQTKYNPNFEGRATISVNTYKNQFSLKLSSVTAADTAVYYCARDYDILTGYSYYYYGMDVWGQGTTVTVSS VL: DIQLTQSPSSLSASVGDRVTITCRASQSISSYLNWYQQKPGKAPKLLIYAASSLRSGVPSRFSGSGSGTDFTLTISSLQPEDFATYYCQQYSNYPLTFGGGTRVEIKR	5.95	0.51	4.32	–	–	–	–
LIBC527879-1 (antibody, V domains shown) VH: QVQLQESGPGLVKPSQTLSLTCTVSGGSIRRGGDYWGWIRQHPGKGLEWIGHIYQSGSTNYNPKLKSRATISVDTYKNQFSLKLSSVTAADTAVYYCARDYDIFTGYSYYYYGMDVWGQGTTVTVSS VL: DIQLTQSPSSLSASVGDRVTITCRASQSIISYLNWYQQKPGKAPKLLIYAASSLRSGVPSRFSGSGSGTDFTLTISSLQPEDFATYYCQQYSNYPLTFGGGTRVEIKR	5.75	0.73	3.24	–	–	–	–
LIBC680574-1 (yeast-displayed Fab) (Fab, V domains shown) VH: QVQLQESGPGLVKPSQTLSLTCTVSGGSIRRGGDYWAWIRQHPGKGLEWIGHVYYTGSTKYNPSFKDRATISVNTYKNQFSLKLSSVTAADTAVYYCARNYDTLTGYSYYYYGMDVWGQGTTVTVSS VL: DIQMTQSPSSLSASVGDRVTITCRASQSISSYLNWYQQKPGKAPKLLIYGARRLGSGVPSRFSGSGSGTDFTLTISSLQPEDFATYYCQQYSSLPVTFGGGTKVEIKR	–	–	–	–	–	1.72	0.72
LIBC681593-1 (yeast-displayed Fab) (Fab, V domains shown) VH: QVQLQESGPGLVKPSQTLSLTCTVSGGSIRRGGDYWAWIRQHPGKGLEWIGHIYQTGSTNYNPRFKGRATISVNTYKNQFSLKLSSVTAADTAVYYCARNYDTLTGYSYYYYGMDVWGQGTTVTVSS VL: DIQMTQSPSSLSASVGDRVTITCRASQSISSYLNWYQQKPGKAPKLLIYNARRLGSGVPSRFSGSGSGTDFTLTISSLQPEDFATYYCQQYRSSPVTFGGGTKVEIKR	–	–	–	–	–	2.37	0.91
LIBC528131-1 (antibody, V domains shown, VK3 LC) VH: QVQLQESGPGLVKPSQTLSLTCTVSGGSIRRGGDYWSWIRQHPGKGLEWIGHIYQTGQTAYNPNLEGRATISVNTYKNQFSLKLSSVTAADTAVYYCARDYDILTGYSYYYYGMDVWGQGTTVTVSS VL: EIVLTQSPATLSLSPGERATLSCRASQSVSSYLGWYQQKPGQAPRLLIYGASSRATGIPDRFSGSGSGTDFTLTISRLEPEDFAVYYCQQYGSSPRTFGQGTKVEIKR	4.47	0.63	3.68	–	–	–	–
10D10 HC D83K/LC N35Y (26970-1) (antibody, V domains shown, Earlier 10D10 variant used as benchmark) VH: QVQLQESGPGLVKPSQTLSLTCTVSGGSIRRGGDYWSWIRQHPGKGLEWIGYIYYSGSTNYNPSLKSRATISVKTSKNQFSLKLSSVTAADTAVYYCARDYDILTGYSYYYYGMDVWGQGTTVTVSS VL: not shown	–	–	–	no binding	no binding	–	–
